Values quoted from earlier work, collected in PMC7031699.
Read-outs that look alike come from different tables or passages of the source.

Assays:
[1] = target: Gq (Homo sapiens) (UniProt P50148)
[2] = target: Gq (Homo sapiens) (UniProt P50148); remark: listed apart in the source

Sequence of UniProt P50148 (P50148 whole entry): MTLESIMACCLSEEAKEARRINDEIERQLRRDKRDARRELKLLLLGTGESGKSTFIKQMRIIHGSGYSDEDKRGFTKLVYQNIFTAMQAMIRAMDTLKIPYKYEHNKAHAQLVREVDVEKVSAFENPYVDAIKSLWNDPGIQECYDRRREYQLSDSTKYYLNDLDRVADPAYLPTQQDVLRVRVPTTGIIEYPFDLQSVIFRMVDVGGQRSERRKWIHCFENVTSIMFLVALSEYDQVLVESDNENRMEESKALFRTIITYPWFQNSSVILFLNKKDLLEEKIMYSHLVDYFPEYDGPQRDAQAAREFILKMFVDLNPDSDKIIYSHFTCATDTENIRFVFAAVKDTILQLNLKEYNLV

Kd [1]: 550 nM
Kd [2]: > 5000 nM
Substance: NTS1 (from UniProt P20789)
